Source: article PMC2756588

T1: Sla1-2, P32790
T1 sequence (P32790 60-140, looked up): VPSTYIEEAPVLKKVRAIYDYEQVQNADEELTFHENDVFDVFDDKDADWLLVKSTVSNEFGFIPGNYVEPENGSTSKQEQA

T2: Pex13, P80667
T2 sequence (P80667 295-386, looked up): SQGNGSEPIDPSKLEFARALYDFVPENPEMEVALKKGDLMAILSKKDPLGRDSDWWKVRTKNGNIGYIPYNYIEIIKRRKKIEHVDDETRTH

T3: Nbp2, Q12163
T3 sequence (Q12163 103-180, looked up): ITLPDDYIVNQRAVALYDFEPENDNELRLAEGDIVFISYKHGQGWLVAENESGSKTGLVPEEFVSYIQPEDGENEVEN

T4: Cyk3, Q07533
T4 sequence (Q07533 1-83, looked up): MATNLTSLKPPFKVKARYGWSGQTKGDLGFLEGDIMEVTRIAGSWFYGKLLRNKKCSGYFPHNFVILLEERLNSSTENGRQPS

T5: Cdc25, P04821
T5 sequence (P04821 50-136, looked up): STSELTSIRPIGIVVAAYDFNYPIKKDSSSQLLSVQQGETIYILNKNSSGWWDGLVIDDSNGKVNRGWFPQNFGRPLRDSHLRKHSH

T6: Fus1, P11710
T6 sequence (P11710 432-512, looked up): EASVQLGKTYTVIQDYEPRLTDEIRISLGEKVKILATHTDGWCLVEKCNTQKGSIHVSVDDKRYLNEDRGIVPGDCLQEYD

T7: Lsb1, P53281
T7 sequence (P53281 45-122, looked up): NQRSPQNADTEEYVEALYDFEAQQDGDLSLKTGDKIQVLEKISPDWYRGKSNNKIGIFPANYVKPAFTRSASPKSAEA

T8: Sla1-3, P32790
T8 sequence (P32790 344-424, looked up): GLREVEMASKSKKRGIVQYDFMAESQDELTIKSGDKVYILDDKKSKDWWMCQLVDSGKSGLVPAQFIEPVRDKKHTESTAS

T9: Boi1, P38041
T9 sequence (P38041 1-86, looked up): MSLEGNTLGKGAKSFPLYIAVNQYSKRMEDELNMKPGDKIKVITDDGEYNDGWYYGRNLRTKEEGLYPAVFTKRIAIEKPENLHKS

T10: Hof1, Q05080
T10 sequence (Q05080 590-669, looked up): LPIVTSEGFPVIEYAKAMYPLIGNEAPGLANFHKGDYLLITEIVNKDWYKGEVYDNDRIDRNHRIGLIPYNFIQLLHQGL

T11: Lsb4, P32793
T11 sequence (P32793 402-468, looked up): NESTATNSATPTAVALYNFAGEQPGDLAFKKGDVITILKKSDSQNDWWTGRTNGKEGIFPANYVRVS

T12: Bbc1, P47068
T12 sequence (P47068 1-78, looked up): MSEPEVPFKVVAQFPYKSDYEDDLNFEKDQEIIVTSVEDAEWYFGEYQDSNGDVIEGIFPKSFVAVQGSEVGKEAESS

T13: Abp1, P15891
T13 sequence (P15891 535-592, looked up): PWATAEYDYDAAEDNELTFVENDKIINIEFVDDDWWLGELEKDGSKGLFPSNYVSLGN

T14: Bzz1-2, P38822
T14 sequence (P38822 568-633, looked up): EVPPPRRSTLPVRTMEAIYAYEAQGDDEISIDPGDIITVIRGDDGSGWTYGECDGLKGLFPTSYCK

T15: Hse1, P38753
T15 sequence (P38753 208-285, looked up): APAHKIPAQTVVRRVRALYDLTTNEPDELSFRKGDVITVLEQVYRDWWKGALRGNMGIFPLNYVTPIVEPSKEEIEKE

T16: Boi2, P39969
T16 sequence (P39969 32-116, looked up): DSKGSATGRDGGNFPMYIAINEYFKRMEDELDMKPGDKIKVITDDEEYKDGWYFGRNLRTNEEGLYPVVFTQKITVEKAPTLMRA

T17: Lsb3, P43603
T17 sequence (P43603 385-451, looked up): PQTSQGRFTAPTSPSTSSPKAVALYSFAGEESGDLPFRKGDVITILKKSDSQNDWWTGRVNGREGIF

T18: Bud14, P27637
T18 sequence (P27637 247-328, looked up): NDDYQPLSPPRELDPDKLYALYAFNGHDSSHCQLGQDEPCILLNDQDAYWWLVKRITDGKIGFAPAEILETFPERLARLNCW

T19: Myo5, Q04439
T19 sequence (Q04439 1072-1160, looked up): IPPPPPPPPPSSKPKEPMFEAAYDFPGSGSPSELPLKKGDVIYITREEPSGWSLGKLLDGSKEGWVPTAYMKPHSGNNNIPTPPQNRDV

T20: Pin3, Q06449
T20 sequence (Q06449 53-122, looked up): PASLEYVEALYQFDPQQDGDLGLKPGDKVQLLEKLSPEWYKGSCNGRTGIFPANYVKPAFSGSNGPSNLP

T21: Bzz1-1, P38822
T21 sequence (P38822 478-572, looked up): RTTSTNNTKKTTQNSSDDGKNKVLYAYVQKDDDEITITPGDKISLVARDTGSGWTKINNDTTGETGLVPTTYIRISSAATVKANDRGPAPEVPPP


Legend:
Test in all cases: SPOT array
[1] = target: T1, Sla1-2, P32790; conditions: median of control spots 712
[2] = target: T2, Pex13, P80667; conditions: median of control spots 1341
[3] = target: T3, Nbp2, Q12163; conditions: median of control spots 357
[4] = target: T4, Cyk3, Q07533; conditions: median of control spots 1451
[5] = target: T5, Cdc25, P04821; conditions: median of control spots 969
[6] = target: T6, Fus1, P11710; conditions: median of control spots 1200
[7] = target: T7, Lsb1, P53281; conditions: median of control spots 388
[8] = target: Bem1-2, P29366; conditions: median of control spots 4347
Sequence of Bem1-2, P29366 (P29366 139-227): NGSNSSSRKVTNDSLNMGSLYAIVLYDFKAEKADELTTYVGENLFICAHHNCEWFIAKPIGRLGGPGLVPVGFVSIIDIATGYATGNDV

[9] = target: Myo3, P36006; conditions: median of control spots 468
[10] = target: Rvs167, P39743; conditions: median of control spots 2707
Sequence of Rvs167, P39743 (P39743 419-482): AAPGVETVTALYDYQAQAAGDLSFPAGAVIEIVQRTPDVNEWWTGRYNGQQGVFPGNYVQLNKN

[11] = target: T8, Sla1-3, P32790; conditions: median of control spots 5475
[12] = target: T9, Boi1, P38041; conditions: median of control spots 1162
[13] = target: T10, Hof1, Q05080; conditions: median of control spots 4086
[14] = target: T11, Lsb4, P32793; conditions: median of control spots 397
[15] = target: T12, Bbc1, P47068; conditions: median of control spots 796
[16] = target: T13, Abp1, P15891; conditions: median of control spots 935
[17] = target: T14, Bzz1-2, P38822; conditions: median of control spots 4538
[18] = target: T15, Hse1, P38753; conditions: median of control spots 1727
[19] = target: T16, Boi2, P39969; conditions: median of control spots 1161
[20] = target: T17, Lsb3, P43603; conditions: median of control spots 406
[21] = target: GST; conditions: median of control spots 978
[22] = target: Bem1-1, P29366; conditions: median of control spots 4282
Sequence of Bem1-1, P29366 (P29366 55-141): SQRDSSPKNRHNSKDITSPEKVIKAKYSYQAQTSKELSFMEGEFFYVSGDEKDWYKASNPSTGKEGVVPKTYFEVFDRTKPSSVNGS

[23] = target: T18, Bud14, P27637; conditions: median of control spots 956
[24] = target: T19, Myo5, Q04439; conditions: median of control spots 471
[25] = target: Sho1, P40073; conditions: median of control spots 1148
Sequence of Sho1, P40073 (P40073 287-367): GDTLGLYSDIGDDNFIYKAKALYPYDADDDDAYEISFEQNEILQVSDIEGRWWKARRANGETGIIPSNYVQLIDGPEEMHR

[26] = target: T20, Pin3, Q06449; conditions: median of control spots 2171
[27] = target: T21, Bzz1-1, P38822; conditions: median of control spots 4446

Row | Binder | SPOT intensity [1] | SPOT intensity [2] | SPOT intensity [3] | SPOT intensity [4] | SPOT intensity [5] | SPOT intensity [6] | SPOT intensity [7] | SPOT intensity [8] | SPOT intensity [9] | SPOT intensity [10] | SPOT intensity [11] | SPOT intensity [12] | SPOT intensity [13] | SPOT intensity [14] | SPOT intensity [15] | SPOT intensity [16] | SPOT intensity [17] | SPOT intensity [18] | SPOT intensity [19] | SPOT intensity [20] | other results
1 | RRARRQMGIPTISQV | 15 | 19 | 2 | 2 | 120 | 1 | 35 | 12 | 10 | 2 | 14 | 3 | 3 | 16 | 58 | 95 | 25 | 11 | 1 | 6 | SPOT intensity [21]: 7; SPOT intensity [22]: 3; SPOT intensity [23]: 41; SPOT intensity [24]: 20; SPOT intensity [25]: 79; SPOT intensity [26]: 33; SPOT intensity [27]: 2
2 | RKRRTHLRLPLIRSN | 0 | 0 | 9 | 8 | 59 | 55 | 3 | 0 | 5 | 0 | 14 | 2 | 0 | 0 | 101 | 75 | 0 | 6 | 0 | 0 | SPOT intensity [21]: 4; SPOT intensity [22]: 0; SPOT intensity [23]: 23; SPOT intensity [24]: 0; SPOT intensity [25]: 47; SPOT intensity [26]: 3; SPOT intensity [27]: 1
3 | RRRIAYPFYPFKKLG | 0 | 5 | 21 | 1 | 85 | 14 | 4 | 3 | 2 | 0 | 21 | 2 | 8 | 0 | 133 | 36 | 6 | 13 | 0 | 0 | SPOT intensity [21]: 2; SPOT intensity [22]: 1; SPOT intensity [23]: 3; SPOT intensity [24]: 0; SPOT intensity [25]: 25; SPOT intensity [26]: 0; SPOT intensity [27]: 0
4 | RRRDFGAPANKRPRR | 0 | 2 | 2 | 3 | 11 | 8 | 0 | 4 | 16 | 0 | 30 | 0 | 0 | 4 | 20 | 165 | 7 | 5 | 1 | 10 | SPOT intensity [21]: 3; SPOT intensity [22]: 0; SPOT intensity [23]: 4; SPOT intensity [24]: 2; SPOT intensity [25]: 90; SPOT intensity [26]: 9; SPOT intensity [27]: 3
